Experiment: soluble on expression in E. coli; label from the status in PepcDB or PDB records

Sequence	soluble on expression in E. coli
MGSSESIVKLNVGGTVFVTLKSTLTKHHGIFKALVKTEMPAEDGDSFFIDRSPKHFETVLNYIRSGDVDLPDSENELKELKREAEYYSLEKLATLCQSSMPKIKSYKTADELLNMIANTKKVVVVIHYLAYKNQLHTIPLGFKFSEFVERNKDKAEVFIYEIKDEEELKDKPYVDDPNRVWSFCIFNSEWSENYPLKSLRDIQVQLDCFGDF	not soluble
MGSSHHHHHHGSSNILIINGAKKFAHSNGQLNDTLTEVADGTLRDLGHDVRIVRADSDYDVKAEVQNFLWADVVIWQMPGWWMGAPWTVKKYIDDVFTEGHGTLYASDGRTRKDPSKKYGSGGLVQGKKYMLSLTWNAPMEAFTEKDQFFHGVGVDGVYLPFHKANQFLGMEPLPTFIANDVIKMPDVPRYTEEYRKHLVEIFG	soluble
MGSSHHHHHHMDRYEIKGVDVASYQGDIDWRELEKQNMKFAFIKATEGSAFVDKYFSKNWTNANKTSMRVGAYHFFSFDSKGETQAEQFIRNVPKYKQALPPVIDVEFYANKKDNPPKREDVTKELSVMIEMLEKHYGKKVILYATQEAYDLYIKDAYPQCDIWIRSVLTKPSLSDERKWTFWQYTNRGKLSGYNGKEKYIDLNVFYGNEEEFENYGMKD	soluble
MGSSHHHHHHSSGLVPRGSHMDKGKSVKSTEKSVGMPPKTPKTDNNAHVDNEFLILQVNDAVFPIGSYTHSFGLETYIQQKKVTNKESALEYLKANLSSQFLYTEMLSLKLTYESALQQDLKKILGVEEVIMLSTSPMELRLANQKLGNRFIKTLQAMNELDMGEFFNAYAQKTKDPTHATSYGVFAASLGIELKKALRHYLYAQTSNMVINCVKSVPLSQNDGQKILLSLQSPFNQLIEKTLELDESHLCTASVQNDIKAMQHESLYSRLYMS	soluble
MGSSHHHHHHSSGLVPRGSHMHMQVTLQVTPPCTQERHYEHLGRCCSRCEPGKYLSSKCTPTSDSVCLPCGPDEYLDTWNEEDKCLLHKVCDAGKALVAVDPGNHTAPRRCACTAGYHWNSDCECCRRNTECAPGFGAQHPLQLNKDTVCTPCLLGFFSDVFSSTDKCKPWTNCTLLGKLEAHQGTTESDVVCSSSMTLRRPPKEAQALEHHHHHH	soluble
MGSSHHHHHHSSGLVPRGSHMKAIALISGGKDSFLSAYIAMQQGFDIVRAMIVRPQEYSYMFHFPNVDKAGYVAGMLGIEPEFVLEDGFQQRVKEYASDGVKAIVSGAIASEFQKTRLERIATEFSIISYTPLWKVDQHRVMRDILDAGIRAMIVSVSAEGFSENDLGREIDDKYLERLYHLEKRYGINITGEGGEYETFVFGFGNKYISVKGHRIWKGSGGYFNIDSVEERPDSC	soluble
MGSSHHHHHHSSGLVPRGSHMQKPIKKDPNRYHGEKMTEFSEWFHNILEEAEIIDQRYPVKGMHVWMPHGFMIRKNTLKILRRILDRDHEEVLFPLLVPEDELAKEAIHVKGFEDEVYWVTHGGLSKLQRKLALRPTSETVMYPMFALWVRSHTDLPMRFYQVVNTFRYETKHTRPLIRVREITTFKEAHTIHATASEAEEQVERAVEIYKEFFNSLGIPYLITRRPPWDKFPGSEYTVAFDTLMPDGKTLQIGTVHNLGQTFARTFEIKFETPEGDHEYVHQTCYGLSDRVIASVIAIHGDESGLCLPPDVAAHQVVIVPIIFKKAAEEVMEACRELRSRLEAAGFRVHLDDRDIRAGRKYYEWEMRGVPLRVEIGPRDLEKGAAVISRRDTGEKVTADLQGIEETLRELMKDILENLRTRAWERMESEIREAETLEEASRIVDEKRGIISFMWCGEEECGMDVEEKVRVDILGIQEEGSGTCINCGREAPYRAYLARTY	soluble
MGSSHHHHHHSSGLVPRGSHMRIAIVVPYLAKVEGNKIALILASKLAKNNEVFVVSYAVKDSIIDEVNSLISPAKFFYQKAISNGRYGIRFAIKYQLLKGVDRKMANLLKALMPLDIYLVISNEGHWIPIYFDKAYGTKSALVVMELHDHGFISAGNDPLRFPILRTVLASPAYGLAKVIEYKRFKSFDILFANSKWTQIVFQYLYGLPVSGILFGIDTEVFKPTPSKFSEMNFIAVPTISLKKDYYGRRLISKLAKDGIPLLSYGPIKIEGVKHLGYLSQDEMVKILSAAKATLFLFNYEALGLIPFESLACGTPVITYPKQGPLVELSDNPNVIYFREYEELLKNCRLHLNSAKDEMTINKCRESVLKYDISKVSVDVEQLFQTIIFNKNKS	soluble
MGSSHHHHHHSSGLVPRGSHMTVEQTPENPGTAARAAAEETVNDILQGAWKARAIHVAVELGVPELLQEGPRTATALAEATGAHEQTLRRLLRLLATVGVFDDLGHDDLFAQNALSAVLLPDPASPVATDARFQAAPWHWRAWEQLTHSVRTGEASFDVANGTSFWQLTHEDPKARELFNRAMGSVSLTEAGQVAAAYDFSGAATAVDIGGGRGSLMAAVLDAFPGLRGTLLERPPVAEEARELLTGRGLADRCEILPGDFFETIPDGADVYLIKHVLHDWDDDDVVRILRRIATAMKPDSRLLVIDNLIDERPAASTLFVDLLLLVLVGGAERSESEFAALLEKSGLRVERSLPCGAGPVRIVEIRRA	soluble
MGSSHHHHHHSSGLVPRGSHMYHHYHAFQGRKLTDQERARVLEFQDSIHYSPRYSDDNYEYRHVMLPKAMLKVIPSDYFNSEVGTLRILTEDEWRGLGITQSLGWEHYECHAPEPHILLFKRPLNYEAELRAATAAAQQQQQQQQQQQQQQQQHQTQSISNDMQVPPQIS	soluble
MGSSHHHHHHSSGLVPRSHMEQLEEDCVHRYGVNAFVLYRLPVVKEGMVVGIVGPNGTGKSTAVKILAGQLIPNLCGDNDSWDGVIRAFRGNELQNYFEKLKNGEIRPVVKPQYVDLIPKAVKGKVIELLKKADETGKLEEVVKALELENVLEREIQHLSGGELQRVAIAAALLRNATFYFFDEPSSYLDIRQRLNAARAIRRLSEEGKSVLVVEHDLAVLDYLSDIIHVVYGEPGVYGIFSQPKGTRNGINEFLRGYLKDENVRFRPYEIKFTKTGERVEIERETLVTYPRLVKDYGSFRLEVEPGEIKKGEVIGIVGPNGIGKTTFVKMLAGVEEPTEGKIEWDLTVAYKPQYIKADYEGTVYELLSKIDASKLNSNFYKTELLKPLGIIDLYDREVNELSGGELQRVAIAATLLRDADIYLLDEPSAYLDVEQRLAVSRAIRHLMEKNEKTALVVEHDVLMIDYVSDRLMVFEGEPGKYGRALPPMGMREGMNRFLASIGITFRRDPDTGRPRANKEGSVKDREQKEKGEYYYIA	soluble
MGSSHHHHHHSSGRENLYFQGHMEKDRKRILITGGAGFVGSHLTDKLMMDGHEVTVVDNFFTGRKRNVEHWIGHENFELINHDVVEPLYIEVDQIYHLASPASPPNYMYNPIKTLKTNTIGTLNMLGLAKRVGARLLLASTSEVYGDPEVHPQSEDYWGHVNPIGPRACYDEGKRVAETMCYAYMKQEGVEVRVARIFNTFGPRMHMNDGRVVSNFILQALQGEPLTVYGSGSQTRAFQYVSDLVNGLVALMNSNVSSPVNLGNPEEHTILEFAQLIKNLVGSGSEIQFLSEAQDDPQKRKPDIKKAKLMLGWEPVVPLEEGLNKAIHYFRKELEYQANNQGS	soluble
MGSSHHHHHHSSGRENLYFQGHMRILWILPYSPWPTTSGGKTRQYHLLRSLAARGHRITVLLHSKQPVSAEDRQALEPFLERLVVLPRRPLRSLSTLLAALFAPYPLLASVNGLSAELQRTATELLREPWDVVQVEHSYSFQPYERPLRDAGQPFVLTEHNVESSLGAATYDRLPGWALPFVRYDQWRYRRWERRVMSQAAAVVAVTEKDARQLGAMLGRPVPVVVNGVDCEHFATARPTPEAQRVLFLGNYEYAPNVDAVEWMLDEILPRVWAHCPEARMSVCGYALPAEWAQRWSDPRIEWQGFVPDLLQLQSSSSVFLAALRHGGGSKLKVLEALAAGLPLASTAQGVSGLELRDGEDYLGGESAEQLANAVVRLLQDPAQARALGENGRAYVRRAHDWSVAASQLEQVYAGLAEGAPACA	soluble
MGSSHHHHHHSSGRENLYFQGMIYQPDENRYHTMEYRRCGRSGVKLPAISLGLWHNFGDTTRVENSRALLQRAFDLGITHFDLANNYGPPPGSAECNFGRILQEDFLPWRDELIISTKAGYTMWDGPYGDWGSRKYLIASLDQSLKRMGLEYVDIFYHHRPDPETPLKETMKALDHLVRHGKALYVGISNYPADLARQAIDILEDLGTPCLIHQPKYSLFERWVEDGLLALLQEKGVGSIAFSPLAGGQLTDRYLNGIPEDSRAASGSRFLKPEQITADKLEKVRRLNELAARRGQKLSQMALAWVLRNDNVTSVLIGASKPSQIEDAVGMLANRRFSAAECAEIDAILEGRF	soluble
MGSSHHHHHHSSGRENLYFQGMTKSKNNPGRGNTIRESNTMKVMEEIREKIRKAIKEGVSLREIEEIILQEAMMEEREAYLEVEDDHKNGTYFRYLGTGDGVLRLRVPRTRKGGFRPKILPEKYERTSPDYEDFLQQLVLSGMTPSQVKAVLAAKGIPYSEIVMNRVAERISNKLKEYKSRELPHDLLALYIDVKIVKVRISESIMERAIYIAIGVDLEGNKFVLDYEVRDREDLDGWKSFLSGLVSRGVSRVDVIVSDDFSGLDRVVSTLFPSSQHQLCITHMVRNLMRVLPDKEKEELMIRVRDLKSSRNVEEGRKAILSLSQLVQPFSPARAKRLLDAADKYCSFLNFPREIRHYLYTNNTSESFNLTLARFEEELGGYFPSLRSLEVYLYVSIHESNSRWKFRPMSVIRHYSYHLKQLHASRFQVSLDEDF	soluble
MGSSHHHHHHSSGRENLYFQGVRPAVIAATGLYTPPDSVSNAELVEAFNTYVANFNAANKARIEAGEIEPLQPSSSEFIEKASGIKSRYVVAKPGIVDPDVMRPIIPERSNDELSILAEMAVTAAEQAIERWGKPRERIGAVLCACSNMQRAYPAMAIEVQNALGLGGFAFDMNVACSSATFGLKTAADFVGGGSVDAVLMVNPEICSGHLNFRDRDSHFIFGDVATAAIVERADDAQGGWSILGTKLKTQFSNNIRNNAGFLNRAWPEGRDKADKLFVQQGRKVFKEVVPLVSEMIIEHAREIGIDPHGLKRMWLHQANINMNEIIGRKVLGRDPTRDENVIILDDYANTSSAGSIIAFHKHQDDMAQGDLGLICSFGAGYSAGTVFVQKR	soluble
MGTKREKDSLAFLLNSGARLLNNAFERRISEAGLGLTPGEARALLTVAVVDGSKQSDIAARLGIEPMTICAYLDKLQSLDLIERQQDPQDRRSKRIVLTKNSTDMLEAVRQEIDELVRHATRGLNEDEVALFRSFLQTLRDNLQPEQPGQSC	soluble
MGTRSKRSERCARCRLHIHRCVCPAMPRYSLATRVVLVMHHREYPKTTATGPLALEILPNSELRIHGEPGRSLNLSDLDTPARRILLLYPGDDVPVLDRELLERDGRPVTLVVPDGTWRQASRMGRRLPGLARAEMVRLPPGPPTEWGVRRENHPQGLATFEAIARALGIIESPDVQSGMEHLFRLMVRQTLGARGCAVDRDLEHHHHHH	soluble
MGTVEKSSNNDASVTDDIRSAEYYHGMVPRQDAEGFLKREGDFLVRKTEQMPGKVVLAMSVRVTDELCRHFMLNMDPTSNKFYFEHTHQESTISELINWHMTTKTPISAASGAKIRRPMERSPWLINHDSIVANKKLGEGAFGDVFIAELDQGGKQEVAVKTMRAEATREARLRFMKEARLMRKYQHKHVVKLIGVAIHEHPLMIVMEYCPNGSLLSHLKKNKVSLIEKLRFTTEAADGIAYLERSKCIHRDIAARNCLLSAKNELKISDFGMSDNKDEIKDETLEKVPIKWLAPETMQEKVYTHKTDIWTFGVLVWEIYSDGAEPYPGLTKIQTRAKIVVNDYRMKMPDGTHPTVADVVTGTCWQKNPEKRSTMDSIHKKLREFYESKK	not soluble
MGVFAQNLKFGHINAQEIVSAMPEFAKAQSDIEALDKQLTSELQRTQEEFNKKYQEFQQAIAKDSLPANIAERRQKELQDMMQRQEQFQQEAQQQMQKAQADAMAPIYKKLDDAIKAVGAAEGVIYIFDLARTPVAYVNESQSINLTPKVKTQLGIK	not soluble
